# According to publication PMC7156504 (2020):
# Molecular target: biotinylated nerve growth factor (NGF) (human, UniProt P01138 122-241, biotin (biotinylated in-house, sites not stated))
# Experiment: FRET; epitope competition with labelled IgGWFL
# Sequence of biotinylated nerve growth factor (NGF) (P01138 122-241): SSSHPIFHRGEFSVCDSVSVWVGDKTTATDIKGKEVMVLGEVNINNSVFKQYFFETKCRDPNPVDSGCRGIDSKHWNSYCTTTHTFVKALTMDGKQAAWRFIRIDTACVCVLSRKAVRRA
row,Binder,IC50 [pM]
1,"evolved scFvWFL variant 37 reformatted as IgG1 (antibody, V domains shown) VH: QVQLVPSGAEVKKPGSSVKVSCKASGGTFWFGAFTWVRQAPGQGLEWMGGIIPTFGLTNLAQNFQGRVTITADESTSTVYMELSSLRSEDTAVYYCARSSRIYDLNPSLTAYYDMDVWGQGTMVTVSS VL: QSVLTQPPSVSAAPGQKVTISCSGPSSDIGNNYVSWYQQLPGTAPKLLIYDNNKRPSGIPDRFSGSKSGTSATLGITGLQTGDEADYYCGTWDSSLSAWVFGGGTKLTVL",136
2,"evolved scFvWFL variant 130 reformatted as IgG1 (antibody, V domains shown) VH: QVQLVQSGAEVKKPGSSVKVSCKASGGAFWFGAFTWVRQAPGQGLEWMGGITPIFGHTNLAQNFQGRVTITADESTSTVYMELSSLRSEDTAVYYCARSSRIYDLNPSLTAYYDMDVWGQGTMVTVSS VL: QSVLTQPPSVSAAPGQKVTISCSGSSSDIGNNYVSWYQQLPGTAPKLLIYDNNKRPSGIPDRFSGSKSGTSATLGITGLQTGDEADYYCGTWDSSLSAWVFGGGTKLTVL",2060
3,"IgGSTT, variant of MEDI1912 with W35S, F36T and L64T in VH (antibody, V domains shown) VH: QVQLVQSGAEVKKPGSSVKVSCKASGGTFSTGAFTWVRQAPGQGLEWMGGIIPIFGTTNLAQNFQGRVTITADESTSTVYMELSSLRSEDTAVYYCARSSRIYDLNPSLTAYYDMDVWGQGTMVTVSS VL: QSVLTQPPSVSAAPGQKVTISCSGSSSDIGNNYVSWYQQLPGTAPKLLIYDNNKRPSGIPDRFSGSKSGTSATLGITGLQTGDEADYYCGTWDSSLSAWVFGGGTKLTVL",573
4,"evolved scFvWFL variant 59 reformatted as IgG1 (antibody, V domains shown) VH: QVQLVQSGAEVKKPGSSVKVSCKASGGTFRFGAFTWARQAPGQGLEWMGGIIPIFGLTNLAQNFQGRATITADESTSTVYMELSSLRSEDTAVYYCARSSRIYDLNPSLTAYYDMDVWGQGTMVTVSS VL: QSVLTQPPSVSAAPGQKVTISCSGSSSDIGNNYVSWYQQLPGTAPKLLTYDNNKRPSGIPGRFSGSKSGTSATLGITGLQTGDEADYYCGTWDSSLSAWVFGGGTKLTVL",177
5,"evolved scFvWFL variant 16 reformatted as IgG1 (antibody, V domains shown) VH: QVQLVQSGAEVKKPGSSVKVSCKASGGTFWSGAFTWVRQAPGQGLEWMGGIIPISGLTNLAQNFQGRVTITADESTSTAYMELSSLRSEDTAVYYCARSSRIYDLNPSLTAYYDMDVWGQGTMVTVSS VL: QSVLTQPPSVSAAPGQKVTISCSGSSSDIGNNYVSWYQQLPGTAPKLLIYDNNKRPSGIPDRFSGSKSGTSATLGITGLQTGDEADYYCGTWDSSLSAWVIGGGTKLTVL",935
6,"evolved scFvWFL variant 72 reformatted as IgG1 (antibody, V domains shown) VH: QVQLVQSGAEVKKPGSSVKVSCKASGGTSWFGAFTWVRQAPGQGLEWMGGTIPIFGLTNLAQNFQGRVTITADESTSTVYMELSSLRSDDTAVYYCARSSRIYDLNPSLTAYYDMGVWGQGTMVTVSS VL: QSVLTQPPSVSAAPGQKVTISCSGSSSDIGDNYVSWYQQLPGTAPKLLIYDNNKRPSGIPDRFSGSKSGTSATLGITGLQTGDEADYYCGTWDSSLSAWVFGGGTKLTVL",1910
7,"evolved scFvWFL variant 128 reformatted as IgG1 (antibody, V domains shown) VH: QVQLVQSGAEVKKPGSSVKVSCKASGGTFWFGAFTWVRQAPGQGLEWMGGIIPIFGLTNLAQNFQGRVTITADESTSTVYMELSSLRSEDTAVYYCARSSRIYDLNPSLTADYDMDVWGQGTMVTVSS VL: QSVLTQPPSVSAAPGQEVTISCSGSSSDIGNNYVSWYQQPPGAAPKLLIYDNNKRPSGIPDRFSGSKSGTSATLGITGLQTGDEADYYCGTWDSSLSAWVFGGGTKLTVL",1410
8,"evolved scFvWFL variant 176 reformatted as IgG1 (antibody, V domains shown) VH: QVQLVRSGAEVKKPGSSVKVSCKASGGTFWFGAFTWVRQAPGQGLEWMGGIIPIFGLTNLAQNFQGRVTITADESTSTVYMELSSLRSEDTAVYYCARSSRIYDLNPSLTAYYDMDVWGQGTMVTVSS VL: QSVLTQPPSVSAAPGQKVTISCSGSSSDIGNNYVSWYQQLPGTAPKLLIYDNNKRPSGIPDRFSGSKSGTSATLGITGLQTGDEADYYCGTWDSSLSAWVFGGGTKLTVL",201
9,"evolved scFvWFL variant 11 reformatted as IgG1 (antibody, V domains shown) VH: QVQLVRSGAEVKKPGSSVKVSCKASGGTFWFGAFTWVRQAPGQGLEWMGGIIPIFGLTNLAQNFQGRVTITADESTSTVYMELSSLRSEDTAVYYCARSSRIYDLNPSLAAYYDMDVWGQGTMVTVSS VL: QSVLTQPPSVSAAPGQKVTIPCSGSSSDIGNNYVSWYQQLPGTAPKLLIYDNNKRPSGIPDRFSGSKSGTSATLGVTGLQTGDEADYYCGTWDSSLSAWVFGGGTKLTVL",251
10,"evolved scFvWFL variant 126 reformatted as IgG1 (antibody, V domains shown) VH: QVQLVQSGAEVKKPGSSVKVSCKASGGTFWFGAFTWVRQAPGQGLEWMGGFIPISGLTNLAQNFQGRVTITADESTSTVYMELSSLRSEDTAVYYCARSSRIYDLNPSLTAYYDMDVWGQGTMVTVSS VL: QSVLTQPPSVSAAPGQKVTISCSGSSSDIGNNYVSWYQQLPGTAPKLLIYDNNKRPSGIPDRFSGSKSGTSATLGITGLQTGDEADYYCGTWDSSLSAWVFGGGTKLTVL",5690
11,"IgGWFL (MEDI1912), human IgG1 antibody specific for human nerve growth factor (antibody, V domains shown) VH: QVQLVQSGAEVKKPGSSVKVSCKASGGTFWFGAFTWVRQAPGQGLEWMGGIIPIFGLTNLAQNFQGRVTITADESTSTVYMELSSLRSEDTAVYYCARSSRIYDLNPSLTAYYDMDVWGQGTMVTVSS VL: QSVLTQPPSVSAAPGQKVTISCSGSSSDIGNNYVSWYQQLPGTAPKLLIYDNNKRPSGIPDRFSGSKSGTSATLGITGLQTGDEADYYCGTWDSSLSAWVFGGGTKLTVL",363
12,"evolved scFvWFL variant 139 reformatted as IgG1 (antibody, V domains shown) VH: QVQLVQSGAEVKKPGSSVKVSCKAGGGTFWSGAFTWVRQAPGQGLEWMGGIIPIFGLTNLAQNFQGRVTITADESTSTVYMELSSLRSEDTAVYYCARSSRTYDLNPSLTAYYDMDVWGQGTMVTVSS VL: QSVLTQPPSVSAAPGQKVTISCSGSSSDIGNNYVSWYQQLPGTAPKLLIYDNNKRPSGIPDRFSGSKSGTTATLGITGLQTGDEADYYCGTWDSSLSAWVFGGGTKLTVL",649
13,"MEDI578 (the parent antibody prior to affinity maturation into MEDI1912) (antibody, V domains shown) VH: QVQLVQSGAEVKKPGSSVKVSCKASGGTFSTYGISWVRQAPGQGLEWMGGIIPIFDTGNSAQSFQGRVTITADESTSTAYMELSSLRSEDTAVYYCARSSRIYDLNPSLTAYYDMDVWGQGTMVTVSS VL: QSVLTQPPSVSAAPGQKVTISCSGSSSNIGNNYVSWYQQLPGTAPKLLIYDNNKRPSGIPDRFSGSKSGTSATLGITGLQTGDEADYYCGTWDSSLSAWVFGGGTKLTVL",36800
